Source: patent publication US20220305003A1, “METHODS OF TREATING CANCER WITH AN INHIBITOR OF ZNF827” (CHILDREN'S MEDICAL RESEARCH INSTITUTE, priority 2019, published 2022)

B1: ZNF827 full length (human zinc finger protein ZNF827) (other)
chain: MPRRKQEQPKRLPSHVSRQEEAEGELSEGEHWYGNSSETPSEASYGEVQENYKLSLEDRIQEQSTSPDTSLGSTTPSSHTLELVALDSEVLRDSLQCQDHLSPGVSSLCDDDPGSNKPLSSNLRRLLEAGSLKLDAAATANGRVESPVNVGSNLSFSPPSHHAQQLSVLARKLAEKQEQNDQYTPSNRFIWNQGKWLPNSTTTCSLSPDSAILKLKAAANAVLQDKSLTRTEETMRFESFSSPFSSQSASSTLAALSKKVSERSLTPGQEHPPPASSFLSLASMTSSAALLKEVAARAAGSLLAEKSSLLPEDPLPPPPSEKKPEKVTPPPPPPPPPPPPPPPQSLELLLLPVPKGRVSKPSNSASEEESGKPFQCPICGLVIKRKSYWKRHMVIHTGLKSHQCPLCPFRCARKDNLKSHMKVHQHQDRGETFQCQLCPFTSSRHFSLKLHMRCHQHFLRTEAKVKEEIPDPDVKGSPHLSDSACLGQQREGGGTELVGTMMTSNTPERTSQGGAGVSPLLVKEEPKEDNGLPTSFTLNAADRPANHTKLKDPSEYVANSASALFSQDISVKMASDFLMKLSAANQKEPMNLNFKVKEEPKEGESLSTTLPRSSYVFSPESEVSAPGVSEDALKPQEGKGSVLRRDVSVKAASELLMKLSAESYKETQMVKIKEEPMEVDIQDSHVSISPSRNVGYSTLIGREKTEPLQKMPEGRVPPERNLFSQDISVKMASELLFQLSEKVSKEHNHTKENTIRTTTSPFFSEDTFRQSPFTSNSKELLPSDSVLHGRISAPETEKIVLEAGNGLPSWKFNDQLFPCDVCGKVFGRQQTLSRHLSLHTEERKYKCHLCPYAAKCRANLNQHLTVHSVKLVSTDTEDIVSAVTSEGSDGKKHPYYYSCHVCGFETELNVQFVSHMSLHVDKEQWMFSICCTACDFVTMEEAEIKTHIGTKHTGEDRKTPSESNSPSSSSLSALSDSANSKDDSDGSQKNKGGNNLLVISVMPGSQPSLNSEEKPEKGFECVFCNFVCKTKNMFERHLQIHLITRMFECDVCHKFMKTPEQLLEHKKCHTVPTGGLNSGQW
notes: Co-IPs used lysates of human cells (U-2 OS, HT1080) from overexpression experiments; also called Myc-DDK-tagged ZNF827 full length; pCMV6 Myc-DDK-tagged ZNF827 (RC221405); not shown: Myc-DDK tag of the pCMV6 vector
B2: ss pentaprobe 3 (ssDNA)
DNA: CGCTCTATTCTACTGTCCTGTGCATTCAATCGTTGAGTTCGATCTAGTCTCGTCTAACCCTCCCCTGCTCCGCTGGTCTGGCCTCGCCTATCCTACCCAT
B3: ss pentaprobe 9 (ssDNA)
DNA: ATGGGTAGGATAGGCGAGGCCAGACCAGCGGAGCAGGGGAGGGTTAGACGAGACTAGATCGAACTCAACGATTGAATGCACAGGACAGTAGAATAGAGCG

Columns and labels:
[1] = target: T1, topoisomerase 2-binding protein 1 (TOPBP1) (human, UniProt Q92547 1-1522); assay: co-IP with Myc antibody, Western blot
T1 construct: TOPBP1 in lysates of human cells, co-immunoprecipitated with Myc antibody
Description: Resuspended cells were lysed by incubation with rotation for 1 hour at 4° C. For Benzonase treatment to remove DNA, samples were incubated in the lysis buffer described above supplemented with 25 U Benzonase nuclease (Novagen, Merck Millipore) for 2 hours at 4° C. Lysates were subjected to centrifugation at 13,000 rpm for 40 minutes at 4° C. to remove cell debris. The supernatant was then transferred to a fresh cold low bind 1.5 mL tube for subsequent immunoprecipitation. For immunoprecipitation, protein lysates were incubated with antibody for the protein of interest (10 μg per mL lysate) or IgG control (Refer to Tables 4 and 5 for the list of antibodies used in this study), preincubated with Dynabeads Protein G, as per manufacturer's instructions (Life Technologies), with rotation overnight at 4° C. The following day, beads were washed three times in cold lysis buffer and separated on a magnetic rack. Proteins were then eluted from the beads by resuspension in 50 mM Glycine pH 2.8 and sodium dodecyl sulphate (SDS) sample buffer (0.2 M Tris-Cl, pH 6.8, 28% glycerol, 13.5% β-mercaptoethanol, 6% SDS, 6 mM EGTA, and 0.07% bromophenol blue) for 10 minutes at 70° C. and subjected to Western blot analysis, as described below, to detect various protein interactions. […]

ZNF827 ZnF1-3 deleted = target: T2, ZNF827 ZnF1-3 deleted (Homo sapiens, UniProt Q17R98 SEQ:4-997); assay: EMSA; binding abrogated; conditions: tags: HaloTag (pHTN), expressed in HEK 293T, tag removed by HaloTEV cleavage; label: 32P (gamma)
T2 chain: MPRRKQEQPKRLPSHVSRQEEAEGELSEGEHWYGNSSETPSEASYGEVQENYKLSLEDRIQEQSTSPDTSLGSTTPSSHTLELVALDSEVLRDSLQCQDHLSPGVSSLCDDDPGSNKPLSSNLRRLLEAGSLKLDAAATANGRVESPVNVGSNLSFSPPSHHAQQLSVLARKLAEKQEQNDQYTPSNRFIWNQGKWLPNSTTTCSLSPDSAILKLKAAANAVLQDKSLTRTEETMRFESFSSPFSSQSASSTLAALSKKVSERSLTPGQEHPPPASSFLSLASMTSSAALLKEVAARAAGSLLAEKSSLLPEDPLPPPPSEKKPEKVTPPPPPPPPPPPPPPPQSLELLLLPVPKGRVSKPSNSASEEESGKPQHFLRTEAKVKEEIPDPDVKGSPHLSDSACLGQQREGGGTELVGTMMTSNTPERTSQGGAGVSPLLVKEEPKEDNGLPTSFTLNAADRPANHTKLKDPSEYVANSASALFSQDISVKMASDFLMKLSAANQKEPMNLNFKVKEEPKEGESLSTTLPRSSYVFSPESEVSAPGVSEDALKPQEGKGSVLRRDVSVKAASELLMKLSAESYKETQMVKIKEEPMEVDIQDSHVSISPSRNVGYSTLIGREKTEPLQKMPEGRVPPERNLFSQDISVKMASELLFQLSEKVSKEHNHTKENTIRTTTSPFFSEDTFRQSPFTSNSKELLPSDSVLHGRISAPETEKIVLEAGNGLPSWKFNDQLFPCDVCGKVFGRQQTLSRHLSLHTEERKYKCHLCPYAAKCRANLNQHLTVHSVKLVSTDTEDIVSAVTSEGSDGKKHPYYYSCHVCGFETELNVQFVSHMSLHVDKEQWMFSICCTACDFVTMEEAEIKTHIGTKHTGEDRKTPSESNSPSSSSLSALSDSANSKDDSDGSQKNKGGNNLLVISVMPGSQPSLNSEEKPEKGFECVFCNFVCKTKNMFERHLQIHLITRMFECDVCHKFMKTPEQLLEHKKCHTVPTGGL
Description: (§1) Purified proteins were quantified using a BCA assay using the Pierce™ BCA Protein Assay Kit according to the manufacturer's instructions. Equal amounts of purified proteins were incubated in binding buffer (20 mM HEPES-KOH, pH7.9, 100 mM KCl, 0.8 mM ZnCl₂, 0.2 mM EDTA, 5% glycerol, 0.5 mM DTT and 0.5 mM PMSF) with 6.25 μg/mL poly (dI:dC) and 50 ng/μL BSA on ice for 20 minutes. ˜0.12 nM (˜2.5 fmol) γ-³²P labelled DNA oligonucleotide (see Table 3) probes were added to samples and incubated on ice for another 30 minutes. Binding reactions were loaded onto an 8% native acrylamide/bisacrylamide (19:1, Biorad) gel pre-run at 100V in 0.5× TB buffer (89 mM Tris, 89 mM boric acid) for 20 minutes. Gels were electrophoresed at 150 V for 150 minutes at 4° C., dried at 65° C. for 45 minutes, and then exposed to a Phosphor screen overnight. Gel images were obtained by scanning the screens with a Typhoon FLA9500 Imager (GE Life Sciences).

ZNF827 full length = target: T3, ZNF827 full length (Homo sapiens, UniProt Q17R98 SEQ:1-1081); assay: EMSA; 0.8 mM ZnCl2, 100 mM KCl, poly(dI:dC), on ice; conditions: tags: HaloTag (pHTN), expressed in HEK 293T, tag removed by HaloTEV cleavage; label: 32P (gamma)
T3 sequence: B1 chain
Description: as §1

ZNF827 ZnF4-9 deleted = target: T4, ZNF827 ZnF4-9 deleted (Homo sapiens); assay: as above; conditions: tags: HaloTag (pHTN), expressed in HEK 293T, tag removed by HaloTEV cleavage; label: 32P (gamma)
T4 chain: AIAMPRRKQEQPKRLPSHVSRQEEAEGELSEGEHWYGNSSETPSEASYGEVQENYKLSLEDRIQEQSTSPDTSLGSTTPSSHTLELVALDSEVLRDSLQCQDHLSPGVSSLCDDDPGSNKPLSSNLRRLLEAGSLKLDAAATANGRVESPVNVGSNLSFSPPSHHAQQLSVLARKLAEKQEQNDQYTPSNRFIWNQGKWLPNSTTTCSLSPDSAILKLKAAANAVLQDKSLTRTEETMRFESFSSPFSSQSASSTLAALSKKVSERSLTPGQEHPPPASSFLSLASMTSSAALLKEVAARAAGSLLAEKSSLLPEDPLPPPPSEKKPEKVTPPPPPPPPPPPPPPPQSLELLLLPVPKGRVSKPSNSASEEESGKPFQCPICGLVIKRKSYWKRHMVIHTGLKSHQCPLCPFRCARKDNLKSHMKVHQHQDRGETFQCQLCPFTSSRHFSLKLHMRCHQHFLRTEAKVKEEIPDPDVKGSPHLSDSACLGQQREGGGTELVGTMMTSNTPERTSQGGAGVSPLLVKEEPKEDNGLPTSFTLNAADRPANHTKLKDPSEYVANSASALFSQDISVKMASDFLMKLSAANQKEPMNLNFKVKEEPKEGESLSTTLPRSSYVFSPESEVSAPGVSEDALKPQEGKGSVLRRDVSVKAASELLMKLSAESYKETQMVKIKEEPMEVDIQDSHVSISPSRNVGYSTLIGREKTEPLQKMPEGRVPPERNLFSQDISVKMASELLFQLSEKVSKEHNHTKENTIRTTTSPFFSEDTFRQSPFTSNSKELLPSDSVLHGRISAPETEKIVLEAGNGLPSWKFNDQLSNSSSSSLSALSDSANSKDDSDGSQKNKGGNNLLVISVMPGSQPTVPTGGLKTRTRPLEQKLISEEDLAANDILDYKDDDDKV
Description: as §1

T1 sequence (Q92547 whole entry): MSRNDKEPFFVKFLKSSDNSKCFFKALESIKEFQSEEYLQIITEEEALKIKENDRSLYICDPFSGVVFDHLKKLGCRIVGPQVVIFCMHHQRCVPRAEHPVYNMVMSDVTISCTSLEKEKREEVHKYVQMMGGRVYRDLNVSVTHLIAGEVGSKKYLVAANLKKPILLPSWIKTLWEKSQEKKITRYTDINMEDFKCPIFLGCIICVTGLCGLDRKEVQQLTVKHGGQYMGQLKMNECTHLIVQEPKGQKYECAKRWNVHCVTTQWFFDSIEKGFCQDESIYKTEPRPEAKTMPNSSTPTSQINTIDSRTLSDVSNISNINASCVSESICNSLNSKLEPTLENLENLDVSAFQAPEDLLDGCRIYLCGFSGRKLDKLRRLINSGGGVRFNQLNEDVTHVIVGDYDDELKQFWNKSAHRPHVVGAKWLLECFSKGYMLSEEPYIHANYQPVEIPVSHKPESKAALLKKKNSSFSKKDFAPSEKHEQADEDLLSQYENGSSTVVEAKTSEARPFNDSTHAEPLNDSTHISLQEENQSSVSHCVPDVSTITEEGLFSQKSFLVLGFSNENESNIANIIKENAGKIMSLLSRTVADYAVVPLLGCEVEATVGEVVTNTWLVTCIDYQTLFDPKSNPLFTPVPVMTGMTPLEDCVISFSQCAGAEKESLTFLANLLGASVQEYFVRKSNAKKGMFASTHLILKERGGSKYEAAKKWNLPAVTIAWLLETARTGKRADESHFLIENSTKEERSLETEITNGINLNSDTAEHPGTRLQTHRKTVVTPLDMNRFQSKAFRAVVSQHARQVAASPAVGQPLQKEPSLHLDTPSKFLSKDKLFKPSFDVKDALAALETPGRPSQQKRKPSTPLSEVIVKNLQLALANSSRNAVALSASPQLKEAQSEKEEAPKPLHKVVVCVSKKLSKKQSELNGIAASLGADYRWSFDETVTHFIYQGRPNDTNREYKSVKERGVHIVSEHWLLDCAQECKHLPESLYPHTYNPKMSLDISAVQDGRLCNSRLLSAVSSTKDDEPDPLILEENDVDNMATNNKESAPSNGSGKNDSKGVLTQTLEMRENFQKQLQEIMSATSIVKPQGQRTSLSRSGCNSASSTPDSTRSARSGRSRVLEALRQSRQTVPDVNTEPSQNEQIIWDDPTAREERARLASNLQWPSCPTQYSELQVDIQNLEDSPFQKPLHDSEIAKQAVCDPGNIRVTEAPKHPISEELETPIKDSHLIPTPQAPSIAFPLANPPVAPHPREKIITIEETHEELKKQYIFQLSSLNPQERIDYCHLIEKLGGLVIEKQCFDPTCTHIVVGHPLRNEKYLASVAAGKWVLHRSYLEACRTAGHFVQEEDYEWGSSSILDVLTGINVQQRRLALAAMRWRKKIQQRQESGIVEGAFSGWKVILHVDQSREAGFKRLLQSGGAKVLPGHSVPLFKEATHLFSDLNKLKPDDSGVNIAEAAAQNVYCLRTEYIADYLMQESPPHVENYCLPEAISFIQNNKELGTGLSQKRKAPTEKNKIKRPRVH

Row | Binder | binding result [1] | binding result (ZNF827 ZnF1-3 deleted) | binding result (ZNF827 full length) | binding result (ZNF827 ZnF4-9 deleted)
1 | B1 | binds | – | – | –
2 | B2 | – | no binding | binds | binds
3 | B3 | – | no binding | binds | binds
